Results reported in patent US20200190209A1.

Biological target: recombinant human CD38 his tagged (extracellular domain) (human) (UniProt P28907)
Test: ForteBio BLI

## IB4 (reference monoclonal agonistic mouse anti-human CD38 antibody)
  Kd: 9 nM
